Assays:
human pan T cells = test: Anti-CD3 coimmobilization assay, IFN-gamma; assay type: cell-based; details: Table E34; culture supernatant, 3 days
Method: Costimulatory bioactivity of CD80 fusion variants was determined in anti-CD3 coimmobilization assays. 1 nM or 4 nM mouse anti-human CD3 (OKT3, Biolegends, USA) was diluted in PBS with 1 nM to 80 nM rCD80.Fc variant proteins. This mixture was added to tissue culture treated flat bottom 96-well plates (Corning, USA) overnight to facilitate adherence of the stimulatory proteins to the wells of the plate. The next day, unbound protein was washed off the plates and 100,000 purified human pan T cells (BenTech Bio, US) or human T cell clone BC3 (Astarte Biologics, USA) were added to each well in a final volume of 200 μl of Ex-Vivo 15 media (Lonza, Switzerland). Cells were cultured 3 days before harvesting culture supernatants and measuring human IFN-gamma levels with Duoset ELISA kit (R&D Systems, USA) as described above.

CD28 [1] = target: T1, CD28 (Homo sapiens, UniProt P10747); test: Flow binding to Jurkat/IL2 reporter cells (CD28); design: host or cells: Jurkat cells expressing an IL-2-luciferase reporter; details: Table E25, linker variants; for CD28 MFI at 33.3 nM: Jurkats (CD28); for CD28 Fold change to WT CD80: relative to CD80 WT IgV-Fc
Summary of the method: (§1)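 Cells were first blocked in PBS with 1% BSA and 0.1% sodium azide. Primary staining with fusion protein ran 45 min on ice, and secondary staining with PE anti-human Fc at 1:150 ran 30 min on ice.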

huPD-L1 = huPD-L1 (Homo sapiens, UniProt Q9NZQ7); test: Flow binding to CHO cells stably expressing PD-L1; design: huCTLA4 and huPD-L1, full-length mammalian surface expression constructs were generated; expressed in transfected cells; host or cells: CHO cells, lentiviral transduction, sorted to >98% purity; details: Table E25, linker variants; for PD-L1 MFI at 33.3 nM: CHO cells stably expressing PD-L1; for Ratio of PDL1:CD28: ratio of MFI at 33.3 nM; for PD-L1 Fold change to WT CD80: relative to CD80 WT IgV-Fc
Chain of huPD-L1 (Q9NZQ7 19-290): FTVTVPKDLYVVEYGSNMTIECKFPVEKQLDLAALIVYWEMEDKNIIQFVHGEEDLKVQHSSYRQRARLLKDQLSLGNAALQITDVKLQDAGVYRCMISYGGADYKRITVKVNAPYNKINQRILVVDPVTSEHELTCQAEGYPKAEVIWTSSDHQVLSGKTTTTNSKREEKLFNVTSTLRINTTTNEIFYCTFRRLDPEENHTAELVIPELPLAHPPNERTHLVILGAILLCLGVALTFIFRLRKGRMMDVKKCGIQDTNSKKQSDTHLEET
Summary of the method: as §1

huCTLA4 = huCTLA4 (Homo sapiens, UniProt P16410); test: Flow binding to CHO cells stably expressing CTLA4; design: huCTLA4 and huPD-L1, full-length mammalian surface expression constructs were generated; expressed in transfected cells; host or cells: CHO cells, lentiviral transduction, sorted to >98% purity; details: Table E25, linker variants; for CTLA4 MFI at 33.3 nM: CHO cells stably expressing CTLA4; for CTLA4 Fold change to WT CD80: relative to CD80 WT IgV-Fc
Chain of huCTLA4 (P16410 36-223): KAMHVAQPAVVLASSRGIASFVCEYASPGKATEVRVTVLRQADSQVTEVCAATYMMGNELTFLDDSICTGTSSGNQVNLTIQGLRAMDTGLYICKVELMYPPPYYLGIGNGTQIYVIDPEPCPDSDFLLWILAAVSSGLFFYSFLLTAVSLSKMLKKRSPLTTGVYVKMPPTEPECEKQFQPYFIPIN
Summary of the method: as §1

CD28 [2] = target: T1, CD28; test: Jurkat/IL2 + CHO/OKT3 +/- PD-L1 reporter assay: PD-L1-dependent CD28 costimulation; assay type: cell-based; design: host or cells: Jurkat cells expressing an IL-2-luciferase reporter; details: Table E26, linker variants, 5.0 nM; for Relative Luciferase Units (RLU), CD80 Conc 5.0 nM: Jurkat/IL2 + CHO/OKT3/PD-L1
Summary of the method: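 Readout is relative luminescence from lysed cocultures: test protein given 15 min at room temperature to Jurkat cells before adding CHO artificial APCs displaying OKT3 alone or OKT3 plus PD-L1, then 5 h at 37 °C, 5% CO2.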

Molecule	Anti-CD3 IFN-gamma Coimmobilization Assay (human pan T cells) [pg/mL]	CD28 MFI at 33.3 nM (CD28 [1])	PD-L1 MFI at 33.3 nM (huPD-L1)	Ratio of PDL1:CD28 (huPD-L1)	CTLA4 MFI at 33.3 nM (huCTLA4)	Fold Increase over WT CD80-IgV-Fe (CD28 [2])	Relative Luciferase Units (RLU), CD80 Conc 5.0 nM (CD28 [2]) [RLU]	further results
H18L, R29D, Y31L, Q33H, K36G, M38I, T41A, M43R, M47T, E81V, L85R, K89N, A91T, F92P, K93V, R94L, E99D, T130A (protein) VIHVTKEVKEVATLSCGLNVSVEELAQTDILWHKEGKIVLAMRSGDTNIWPEYKNRTIFDITNNLSIVILALRPSDEGTYVCVVRKYENDTPVLEHLADVTLSVKADFPTPSISDFEIPTSNIRRIICSASGGFPEPHLSWLENGEELNAINTTVSQDPETELYAVSSKLDFNMTTNHSFMCLIKYGHLRVNQTFNWNTTKQEHFPDN	174	–	–	–	–	–	–	–
R29D, Y31L, Q33H, K36G, M38I, T41A, M43R, M47T, T62S, E81V, L85R, K89N, A91T, F92P, K93V, R94L, I118V, T120S, T130A, K169E, T175A (protein) VIHVTKEVKEVATLSCGHNVSVEELAQTDILWHKEGKIVLAMRSGDTNIWPEYKNRTIFDISNNLSIVILALRPSDEGTYVCVVRKYENDTPVLEHLAEVTLSVKADFPTPSISDFEVPSSNIRRIICSASGGFPEPHLSWLENGEELNAINTTVSQDPETELYAVSSELDFNMATNHSFMCLIKYGHLRVNQTFNWNTTKQEHFPDN	114	–	–	–	–	–	–	–
R29D, Y31L, Q33H, K36G, M38I, T41A, M43R, M47T, L70Q, E81V, L85R, K89N, A91T, F92P, K93I, R94L, L97R, T130A, L148S (protein) VIHVTKEVKEVATLSCGHNVSVEELAQTDILWHKEGKIVLAMRSGDTNIWPEYKNRTIFDITNNLSIVIQALRPSDEGTYVCVVRKYENDTPILEHRAEVTLSVKADFPTPSISDFEIPTSNIRRIICSASGGFPEPHLSWLENGEESNAINTTVSQDPETELYAVSSKLDFNMTTNHSFMCLIKYGHLRVNQTFNWNTTKQEHFPDN	101	–	–	–	–	–	–	–
R29D, Y31L, Q33H, K36G, M38I, T41A, M43R, M47T, L70Q, E81V, L85R, K89N, A91T, F92P, K93I, R94L, L97R, T130A (protein) VIHVTKEVKEVATLSCGHNVSVEELAQTDILWHKEGKIVLAMRSGDTNIWPEYKNRTIFDITNNLSIVIQALRPSDEGTYVCVVRKYENDTPILEHRAEVTLSVKADFPTPSISDFEIPTSNIRRIICSASGGFPEPHLSWLENGEELNAINTTVSQDPETELYAVSSKLDFNMTTNHSFMCLIKYGHLRVNQTFNWNTTKQEHFPDN	202	–	–	–	–	–	–	–
R29D, Y31L, Q33H, K36G, M38I, T41A, M43R, M47T, I61N, E81V, L85R, K89N, A91T, F92P, K93V, R94F, V104A, I118V, T120S, I126V, T130A (protein) VIHVTKEVKEVATLSCGHNVSVEELAQTDILWHKEGKIVLAMRSGDTNIWPEYKNRTIFDNTNNLSIVILALRPSDEGTYVCVVRKYENDTPVFEHLAEVTLSAKADFPTPSISDFEVPSSNIRRVICSASGGFPEPHLSWLENGEELNAINTTVSQDPETELYAVSSKLDFNMTTNHSFMCLIKYGHLRVNQTFNWNTTKQEHFPDN	288	–	–	–	–	–	–	–
H18L, R29D, Y31L, Q33H, K36G, M38I, T41A, M43R, M47T, L70Q, E81V, L85R, K89N, A91T, F92P, K93V, R94L, I118V, T120S, T130A, K169E (protein) VIHVTKEVKEVATLSCGLNVSVEELAQTDILWHKEGKIVLAMRSGDTNIWPEYKNRTIFDITNNLSIVIQALRPSDEGTYVCVVRKYENDTPVLEHLAEVTLSVKADFPTPSISDFEVPSSNIRRIICSASGGFPEPHLSWLENGEELNAINTTVSQDPETELYAVSSELDFNMTTNHSFMCLIKYGHLRVNQTFNWNTTKQEHFPDN	232	–	–	–	–	–	–	–
R29D, Y31L, Q33H, K36G, M38I, T41A, M43R, M47T, E81V, L85R, K89N, A91T, F92P, K93V, R94F, I118V, T120S, T130A (protein) VIHVTKEVKEVATLSCGHNVSVEELAQTDILWHKEGKIVLAMRSGDTNIWPEYKNRTIFDITNNLSIVILALRPSDEGTYVCVVRKYENDTPVFEHLAEVTLSVKADFPTPSISDFEVPSSNIRRIICSASGGFPEPHLSWLENGEELNAINTTVSQDPETELYAVSSKLDFNMTTNHSFMCLIKYGHLRVNQTFNWNTTKQEHFPDN	111	–	–	–	–	–	–	–
E35D/D46V/M47L/V68M/L85Q/E88D delta (protein) VIHVTKEVKEVATLSCGHNVSVEELAQTRIYWQKDKKMVLTMMSGVLNIWPEYKNRTIFDITNNLSIMILALRPSDEGTYECVVQKYDKDAFKREHLAEVTLSVKTHTCPPCPAPEAEGAPSVFLFPPKPKDTLMISRTPEVTCVVVDVSHEDPEVKFNWYVDGVEVHNAKTKPREEQYNSTYRVVSVLTVLHQDWLNGKEYKCKVSNKALPAPIEKTISKAKGQPREPQVYTLPPSREEMTKNQVSLTCLVKGFYPSDIAVEWESNGQPENNYKTTPPVLDSDGSFFLYSKLTVDKSRWQQGNVFSCSVMHEALHNHYTQKSLSLSPG	–	4173	22538	5	12177	2.77	1079	–
E35D/M47V/N48K/V68M/K89N EAAAK (protein, UniProt P33681 35-288, looked up, variant E35D M47V N48K V68M K89N, EAAAK linker) T-lymphocyte activation …: VIHVTKEVKEVATLSCGHNVSVEELAQTRIYWQKDKKMVLTMMSGDVKIWPEYKNRTIFDITNNLSIMILALRPSDEGTYECVVLKYENDAFKREHLAEVTLSVKADFPTPSISDFEIPTSNIRRIICSTSGGFPEPHLSWLENGEELNAINTTVSQDPETELYAVSSKLDFNMTTNHSFMCLIKYGHLRVNQTFNWNTTKQEHFPDNLLPSWAITLISVNGIFVICCLTYCFAPRCRERRRNERLRRESVRPV	–	2634	22862	9	27516	4.38	1707	CD28 Fold change to WT CD80 (CD28 [1]): 47.1; PD-L1 Fold change to WT CD80 (huPD-L1): 490.6; CTLA4 Fold change to WT CD80 (huCTLA4): 23.0
E35D/D46V/M47L/V68M/L85Q/E88D (EAAAK)3 (protein, UniProt P33681 35-288, looked up, variant E35D D46V M47L V68M L85Q E88D, (EAAAK)3 linker) T-lymphocyte activation …: VIHVTKEVKEVATLSCGHNVSVEELAQTRIYWQKDKKMVLTMMSGVLNIWPEYKNRTIFDITNNLSIMILALRPSDEGTYECVVQKYDKDAFKREHLAEVTLSVKADFPTPSISDFEIPTSNIRRIICSTSGGFPEPHLSWLENGEELNAINTTVSQDPETELYAVSSKLDFNMTTNHSFMCLIKYGHLRVNQTFNWNTTKQEHFPDNLLPSWAITLISVNGIFVICCLTYCFAPRCRERRRNERLRRESVRPV	–	197	25461	129	32048	5.25	2046	CD28 Fold change to WT CD80 (CD28 [1]): 3.5; PD-L1 Fold change to WT CD80 (huPD-L1): 546.4; CTLA4 Fold change to WT CD80 (huCTLA4): 26.8

Source: US20220177587A1, “METHODS AND USES OF VARIANT CD80 FUSION PROTEINS AND RELATED CONSTRUCTS” (Alpine Immune Sciences, Inc., priority 2018, published 2022)
